We go through 4 substances from patent US6875851.

For data set [1], the target named is DPP IV from P. gingivalis (Porphyromonas gingivalis). In words: cell-based or functional assay.

For the substance Ala-Gly-Pro (peptide), in data set [1], the Residual activity of DPP IV, % (inhibitor at 10 mM) was 1%.

Substance Ala-Pro (peptide) came in with a Residual activity of DPP IV, % (inhibitor at 10 mM) in data set [1] of 30%.

With DPP IV from P. gingivalis, the Cleavage site result in the data set with Peptide 23 is reported as “H-Ser-Pro-↑-Tyr-Ser-Ser-Asp-Thr-Thr”.

Take Val-Pro (peptide): in data set [1], the Residual activity of DPP IV, % (inhibitor at 10 mM) stood at 0%.
